One substance from US6696409 can be followed below.

Assay [1] deals with Y2-like receptors in anaesthetised rats (rat). In words: cell-based or functional assay.
The target of assay [2] is Y1 receptors in anaesthetised rats (rat). Put plainly: cell-based or functional assay.

Regarding “Ac[L28,I30]NPY24-36 (from UniProt P01303 52-64) (peptide)”, the EC50 of the change in pulse interval (PI %), vagal stimulation in anaesthetised rats in assay [1] was 1.26 nmol. Besides, the Increase in BP (rel to NPY), anaesthetised rats (relative to NPY) in assay [2] came to 0.
